In the supplement of paper PMC10567573 one finds protein stability index data, which are given here for 94 variants.

B1: EIF5 (parent)
chain: KQTIGNSCKACGYRGMLDTHHKLC
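Note: lentivirally expressed fusions sorted by FACS into six bins by GFP to DsRed ratio, PSI derived from sequencing read proportions per bin multiplied by bin number.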

The variants in the data set derive from B1. Kind of data set: protein stability index of a GFP-peptide fusion (GPS, HEK-293T) (PSI 1-6); higher = more stable. The note with it: c terminus: a fixed tail appended.
Take KQTIGNSCKARGYRGMLDTHHKLC [C11R]: the protein stability index worked out at 1.61. The value for KQTIGNSCKAPGYRGMLDTHHKLC [C11P] was 1.92; that for KQTIGNSCKANGYRGMLDTHHKLC [C11N] was 1.94; that for KQTIGNSCKAGGYRGMLDTHHKLC [C11G] was 1.69. For KQTIGNSCKAVGYRGMLDTHHKLC [C11V], the protein stability index was found to be 2.88.

Turning to KQTIGNSCKATGYRGMLDTHHKLC [C11T], the protein stability index worked out at 1.56. In the case of KQTIGNSCKASGYRGMLDTHHKLC [C11S], the protein stability index turned out to be 1.9. The same measure for KQTIGNSCKAEGYRGMLDTHHKLC [C11E]: 1.55; for KQTIGNSCKAWGYRGMLDTHHKLC [C11W]: 2.06. With KQTIGNSCKAHGYRGMLDTHHKLC [C11H], the protein stability index was 1.53. As to KQTIGNSCKAQGYRGMLDTHHKLC [C11Q], the protein stability index is 2.26. The value for KQTIGNSCKALGYRGMLDTHHKLC [C11L] was 2.28; that for KQTIGNSCKAKGYRGMLDTHHKLC [C11K] was 1.88. The same measure for KQTIGNSCKAIGYRGMLDTHHKLC [C11I]: 1.52; for KQTIGNSCKADGYRGMLDTHHKLC [C11D]: 1.7.

As to KQTIGNSCKAAGYRGMLDTHHKLC [C11A], the protein stability index amounted to 2.2. The value for KQTIGNSCKAFGYRGMLDTHHKLC [C11F] was 2.17; that for KQTIGNSCKAMGYRGMLDTHHKLC [C11M] was 1.73; that for KQTIGNSCKCCGYRGMLDTHHKLC [A10C] was 3.09. KQTIGNSCKYCGYRGMLDTHHKLC [A10Y]: the protein stability index is 4.03. As for KQTIGNSCKVCGYRGMLDTHHKLC [A10V], the protein stability index amounted to 3.33. The value for KQTIGNSCKWCGYRGMLDTHHKLC [A10W] was 3.01; that for KQTIGNSCKGCGYRGMLDTHHKLC [A10G] was 2.71; that for KQTIGNSCKQCGYRGMLDTHHKLC [A10Q] was 3. The same measure for KQTIGNSCKHCGYRGMLDTHHKLC [A10H]: 4.19; for KQTIGNSCKTCGYRGMLDTHHKLC [A10T]: 3.36; for KQTIGNSCKMCGYRGMLDTHHKLC [A10M]: 3.12. Take KQTIGNSCKICGYRGMLDTHHKLC [A10I]: the protein stability index worked out at 3.86.

On to KQTIGNSCKNCGYRGMLDTHHKLC [A10N], for which the protein stability index was found to be 2.85. The value for KQTIGNSCKFCGYRGMLDTHHKLC [A10F] was 4.01; that for KQTIGNSCKLCGYRGMLDTHHKLC [A10L] was 3.3. The value for KQTIGNSCKRCGYRGMLDTHHKLC [A10R] was 3.27; that for KQTIGNSCKPCGYRGMLDTHHKLC [A10P] was 2.63; that for KQTIGNSCKKCGYRGMLDTHHKLC [A10K] was 3.29.

For the variant KQTIGNSCKDCGYRGMLDTHHKLC [A10D], the protein stability index amounted to 3.68. The value for KQTIGNSCKSCGYRGMLDTHHKLC [A10S] was 3.44; that for KQTIGNSCKECGYRGMLDTHHKLC [A10E] was 4.16. For KQTIGNSCLACGYRGMLDTHHKLC [K9L], the protein stability index was 2.6. The value for KQTIGNSCHACGYRGMLDTHHKLC [K9H] was 3.08; that for KQTIGNSCWACGYRGMLDTHHKLC [K9W] was 2.89. The same measure for KQTIGNSCFACGYRGMLDTHHKLC [K9F]: 2.16. Turning to KQTIGNSCQACGYRGMLDTHHKLC [K9Q], the protein stability index was found to be 3.11. The value for KQTIGNSCSACGYRGMLDTHHKLC [K9S] was 2.88. Regarding KQTIGNSCNACGYRGMLDTHHKLC [K9N], the protein stability index turned out to be 2.79. The same measure for KQTIGNSCCACGYRGMLDTHHKLC [K9C]: 3.97; for KQTIGNSCGACGYRGMLDTHHKLC [K9G]: 2.82; for KQTIGNSCPACGYRGMLDTHHKLC [K9P]: 4.46.

For KQTIGNSCRACGYRGMLDTHHKLC [K9R], the protein stability index is 2.79.

With KQTIGNSCIACGYRGMLDTHHKLC [K9I], the protein stability index came to 2.97.

With KQTIGNSCTACGYRGMLDTHHKLC [K9T], the protein stability index stood at 3.3. The value for KQTIGNSCAACGYRGMLDTHHKLC [K9A] was 3.57; that for KQTIGNSCVACGYRGMLDTHHKLC [K9V] was 3.13. For the variant KQTIGNSCMACGYRGMLDTHHKLC [K9M], the protein stability index turned out to be 2.85. For the variant KQTIGNSCEACGYRGMLDTHHKLC [K9E], the protein stability index amounted to 3.5. The value for KQTIGNSCYACGYRGMLDTHHKLC [K9Y] was 2.61. The same measure for KQTIGNSCDACGYRGMLDTHHKLC [K9D]: 3.87; for KQTIGNSIKACGYRGMLDTHHKLC [C8I]: 1.74; for KQTIGNSHKACGYRGMLDTHHKLC [C8H]: 1.91. The same measure for KQTIGNSNKACGYRGMLDTHHKLC [C8N]: 2.78. Regarding KQTIGNSWKACGYRGMLDTHHKLC [C8W], the protein stability index stood at 1.95. Consider KQTIGNSFKACGYRGMLDTHHKLC [C8F], for which the protein stability index stood at 1.44. The same measure for KQTIGNSMKACGYRGMLDTHHKLC [C8M]: 1.86; for KQTIGNSDKACGYRGMLDTHHKLC [C8D]: 2.48; for KQTIGNSTKACGYRGMLDTHHKLC [C8T]: 2.05. The value for KQTIGNSLKACGYRGMLDTHHKLC [C8L] was 3.05. The same measure for KQTIGNSQKACGYRGMLDTHHKLC [C8Q]: 1.91; for KQTIGNSSKACGYRGMLDTHHKLC [C8S]: 2.19; for KQTIGNSEKACGYRGMLDTHHKLC [C8E]: 2.68. With KQTIGNSAKACGYRGMLDTHHKLC [C8A], the protein stability index is 2.06.

On to KQTIGNSRKACGYRGMLDTHHKLC [C8R], for which the protein stability index was 1.69. For the variant KQTIGNSPKACGYRGMLDTHHKLC [C8P], the protein stability index turned out to be 1.88. The value for KQTIGNSYKACGYRGMLDTHHKLC [C8Y] was 1.44; that for KQTIGNSGKACGYRGMLDTHHKLC [C8G] was 2.03. The value for KQTIGNSVKACGYRGMLDTHHKLC [C8V] was 1.78; that for KQTIGNSKKACGYRGMLDTHHKLC [C8K] was 2.28.

For KQTIGNICKACGYRGMLDTHHKLC [S7I], the protein stability index is 4.31. As to KQTIGNWCKACGYRGMLDTHHKLC [S7W], the protein stability index was 2.64. For the variant KQTIGNTCKACGYRGMLDTHHKLC [S7T], the protein stability index is 3.29. The value for KQTIGNHCKACGYRGMLDTHHKLC [S7H] was 4.11; that for KQTIGNECKACGYRGMLDTHHKLC [S7E] was 3.82; that for KQTIGNPCKACGYRGMLDTHHKLC [S7P] was 2.91. The value for KQTIGNQCKACGYRGMLDTHHKLC [S7Q] was 4.08. The value for KQTIGNRCKACGYRGMLDTHHKLC [S7R] was 3.11; that for KQTIGNNCKACGYRGMLDTHHKLC [S7N] was 3.25. Consider KQTIGNACKACGYRGMLDTHHKLC [S7A], for which the protein stability index worked out at 3.96. The value for KQTIGNVCKACGYRGMLDTHHKLC [S7V] was 3.72; that for KQTIGNLCKACGYRGMLDTHHKLC [S7L] was 4.11; that for KQTIGNGCKACGYRGMLDTHHKLC [S7G] was 3.5. The same measure for KQTIGNKCKACGYRGMLDTHHKLC [S7K]: 3.93. The value for KQTIGNDCKACGYRGMLDTHHKLC [S7D] was 3.83; that for KQTIGNYCKACGYRGMLDTHHKLC [S7Y] was 4.17; that for KQTIGNCCKACGYRGMLDTHHKLC [S7C] was 3.5. For KQTIGNFCKACGYRGMLDTHHKLC [S7F], the protein stability index amounted to 3.91. The same measure for KQTIGNMCKACGYRGMLDTHHKLC [S7M]: 3.58.
